Measurements from patent CN118206654A (BEILAI PHARMACEUTICAL CO LTD, dated 2024).
One block for each molecule: values may come before it.

Legend:
[1] = target: IL-17RA and IL-17RC co-expressed on 293F-IL-17RA-IL-17Rc-ACT1-NFκB-Luc cells (UniProt Q96F46); test: flow cytometry; IL17A-His on 293F-IL-17RA-IL-17Rc-ACT1-NFκB-Luc cells, APC anti-His
[2] = target: T1, Biotin-IL-17A-His (human, UniProt Q16552 24-155, limits assumed, biotin (site not stated)); test: ELISA; antibody coated at 2 ug/mL, Biotin-IL-17A-His titrated from 10 ug/mL (5-fold, 7 points), HRP-Streptavidin; the concentration is that of IL-17A
T1 construct: also called 人IL-17A蛋白 (biotinylated)
T1 sequence: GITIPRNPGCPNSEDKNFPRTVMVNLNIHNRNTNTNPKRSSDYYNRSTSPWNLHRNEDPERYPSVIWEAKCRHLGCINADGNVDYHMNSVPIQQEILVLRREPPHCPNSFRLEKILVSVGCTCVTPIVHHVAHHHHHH

- 阳性率 [1]: > 90%
Molecule: Human IL-17A重组蛋白 (C-terminal 6×His) (from UniProt Q16552 24-155) (ligand)

- EC50 [2]: 10.1 µg/mL
B1: 阳性对照抗体Ixekizumab (antibody, human IgG4 S228P, kappa, V domains shown)
VH: QVQLVQSGAEVKKPGSSVKVSCKASGYSFTDYHIHWVRQAPGQGLEWMGVINPMYGTTDYNQRFKGRVTITADESTSTAYMELSSLRSEDTAVYYCARYDYFTGTGVYWGQGTLVTVSS
VL: DIVMTQTPLSLSVTPGQPASISCRSSRSLVHSRGNTYLHWYLQKPGQSPQLLIYKVSNRFIGVPDRFSGSGSGTDFTLKISRVEAEDVGVYYCSQSTHLPFTFGQGTKLEIKR
notes: also called 阳性抗体
